Source: patent US20210238260A1 (published 2021)

Assays:
Factor X (FX) = Factor X (FX) (UniProt P00742 41-488); experiment: cell-based or functional assay
[1] = molecular target: T1, plasma purified human antithrombin III (AT-III), in complex with unfractionated heparin (human, UniProt P01008 33-464); experiment: AT-III/UFH inhibition of FIXa; K0.5 = AT-III conc. for 50% inhibition of residual activity on Mesyl-D-CHG-Gly-Arg-AMC
T1 construct: also called AT-III/UFH

B1: FIXa-R318Y/R338E/T343R (enzyme)
chain 1: YNSGKLEEFVQGNLERECMEEKCSFEEAREVFENTERTTEFWKQYVDGDQCESNPCLNGGSCKDDINSYECWCPFGFEGKNCELDVTCNIKNGRCEQFCKNSADNKVVCSCTEGYRLAENQKSCEPAVPFPCGRVSVSQTSKLTR
chain 2: VVGGEDAKPGQFPWQVVLNGKVDAFCGGSIVNEKWIVTAAHCVETGVKITVVAGEHNIEETEHTEQKRNVIRIIPHHNYNAAINKYNHDIALLELDEPLVLNSYVTPICIADKEYTNIFLKFGSGYVSGWGRVFHKGYSALVLQYLRVPLVDRATCLESTKFRIYNNMFCAGFHEGGRDSCQGDSGGPHVTEVEGTSFLTGIISWGEECAMKGKYGIYTKVSRYVNWIKEKTKLT
Factor X activation, fold over wild-type or BeneFIX FIX (Factor X (FX)): ~2.5 fold

B2: FIXa D203N/F205T/R318Y/E410N (enzyme)
light: YNSGKLEEFVQGNLERECMEEKCSFEEAREVFENTERTTEFWKQYVDGDQCESNPCLNGGSCKDDINSYECWCPFGFEGKNCELDVTCNIKNGRCEQFCKNSADNKVVCSCTEGYRLAENQKSCEPAVPFPCGRVSVSQTSKLTR
heavy: VVGGEDAKPGQFPWQVVLNGKVNATCGGSIVNEKWIVTAAHCVETGVKITVVAGEHNIEETEHTEQKRNVIRIIPHHNYNAAINKYNHDIALLELDEPLVLNSYVTPICIADKEYTNIFLKFGSGYVSGWGRVFHKGYSALVLQYLRVPLVDRATCLRSTKFTIYNNMFCAGFHEGGRDSCQGDSGGPHVTEVEGTSFLTGIISWGEECAMKGKYGIYTKVSRYVNWIKNKTKLT
notes: also called D39N/F41T/R150Y/E240N
IC50 [1]: 1280 nM
